± gives the half width of the 95% confidence interval.
Assays:
[1] = folding stability dG unfold (combined trypsin and chymotrypsin); higher = more stable
Summary of the method: (§1)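 Bayesian fitting of sequencing counts gave K50 for each design. Unfolding free energy followed by setting this against a sequence-predicted unfolded-state K50 and a shared folded-state K50, either per protease or with trypsin and chymotrypsin combined. The designs, under 80 residues and lacking cysteine, were digested in a PA-tagged cDNA display format at 11 threefold-diluted protease concentrations and without protease, and only those with AlphaFold2 dimer inter-PAE above 15 were kept.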

[2] = folding stability dG unfold from trypsin proteolysis; higher = more stable
Summary of the method: as §1

[3] = folding stability dG unfold from chymotrypsin proteolysis; higher = more stable
Summary of the method: as §1

What does the source list for “STRTLTVVVEAPTLEEALAAAKALAPPGWKVTVTVERREVVDPETGETRTVLVVTVTIEPAPPPPPAEEKSA [r9_962_TrROS_Hall]”?
folding stability dG unfold [1]: 12 ± 0.381 kJ/mol; folding stability dG unfold [2]: 8.82 ± 0.117 kJ/mol; folding stability dG unfold [3]: 13.2 ± 0.347 kJ/mol

For “SVDPAKEKVVLRFTVTFPVPPELGPITADELAALVREILEAFGYEIVSVTVTVEGDRVTVTVEAVFDKRGSA [r9_1134_TrMRF]”, which “folding stability dG unfold” value [1] is on record?
The value was 21 ± 0.381 kJ/mol.

What about the “folding stability dG unfold” value [2] of the same sequence?
The value was 15.7 ± 0.46 kJ/mol.

And the “folding stability dG unfold” value [3]?
Its value is 21.8 ± 0.36 kJ/mol.

With “SVEELAKKLAELFPNVKVTVTEEEIDGKKVKTIRIENKKTGKTYEITVLPNGEILITDSNGKKFSLEELLSA [r9_1176_TrROS_Hall]” as the sequence, how does the “folding stability dG unfold” value [1] read?
The value was 20.3 ± 1.05 kJ/mol.

And the “folding stability dG unfold” value [2]?
Its value is 17.8 ± 1.13 kJ/mol.

What about the “folding stability dG unfold” value [3] of the same sequence?
The value was 20.5 ± 1.3 kJ/mol.

Which “folding stability dG unfold” value [1] does the source give for “SVKVEVSISYDPETNTITITVRVYYKDENGNWTEVATITITIKIELPPPPPKTITLKPGVKTKEEAKKALSA [r9_888_TrROS_Hall]” here?
Its value is 12.6 ± 0.962 kJ/mol.

What about the “folding stability dG unfold” value [2] of the same sequence?
Its value is 11 ± 1.17 kJ/mol.

And the “folding stability dG unfold” value [3]?
The value was 14.8 ± 1.09 kJ/mol.

With “SVNPATQVVTVTREVTYPVPPSQGPISEEEAREAVEAELAARGWTLREVRVEYEGDTVTVTAVAERPAAASA [r9_1134_JUSTAS]” as the sequence, how does the “folding stability dG unfold” value [1] read?
Its value is 4.66 ± 0.159 kJ/mol.

What about the “folding stability dG unfold” value [2] of the same sequence?
The value was 4.34 ± 0.0753 kJ/mol.

What about the “folding stability dG unfold” value [3] of the same sequence?
The value was 4.72 ± 0.222 kJ/mol.

Which “folding stability dG unfold” value [1] does the source give for “SVPADAKPGVVPERVVLVIVVPPELLDEDGRLRPENLEIAAGEAAEAARKLREAFPDVPIEDVGVVVVEGSA [r9_943_TrMRF]” here?
The value was 2.95 ± 0.192 kJ/mol.

What about the “folding stability dG unfold” value [2] of the same sequence?
The value was 3.64 ± 0.0837 kJ/mol.

And the “folding stability dG unfold” value [3]?
The value was 1.95 ± 0.121 kJ/mol.

For “SVPPNAPPGMKPKRVEIFIFIPPELYDKDGKISPEQLKKAKGMAKMIKLRLREQYPGYGIDDVKVHIMPGSA [r9_943_TrROS]”, which “folding stability dG unfold” value [1] is on record?
The value was 13.1 ± 0.406 kJ/mol.

And the “folding stability dG unfold” value [2]?
The value was 11.6 ± 0.218 kJ/mol.

And the “folding stability dG unfold” value [3]?
The value was 13.82 ± 0.092 kJ/mol.

With “SVPYGVTDVTFEPEKNTATVTAPRPDPSAPVAVGDKKGESVSVTSEVDTAAGTLTVTVPTTAPGNVTVDVPS [r1_138_JUSTAS]” as the sequence, how does the “folding stability dG unfold” value [1] read?
Its value is 0.558 ± 0.502 kJ/mol.

And the “folding stability dG unfold” value [2]?
The value was 2.38 ± 0.172 kJ/mol.

What about the “folding stability dG unfold” value [3] of the same sequence?
The value was -3.91 ± 2.26 kJ/mol.

For “SVYNPNNPNIPTKLTVTIPVPEEVVAAGDTAAAEAAAEATAAALAPEGWRVTSVSFPRETGTMTVTLTRPSA [r9_75_JUSTAS]”, which “folding stability dG unfold” value [1] is on record?
Its value is 5.57 ± 0.264 kJ/mol.

What about the “folding stability dG unfold” value [2] of the same sequence?
The value was 5.54 ± 0.092 kJ/mol.

And the “folding stability dG unfold” value [3]?
Its value is 4.87 ± 0.46 kJ/mol.

What does the source list for “SWMFMIEVHDPKNGKERTVPINMPKEQVLDQIREAQEKGPRIEIWGIPPNAIKEIAEEAKLPVEIHPMPPSA [r9_1207_TrROS]”?
folding stability dG unfold [1]: 0.62 ± 0.586 kJ/mol; folding stability dG unfold [2]: 0.0501 ± 1 kJ/mol; folding stability dG unfold [3]: 1.71 ± 0.628 kJ/mol

With “SWNLRLEIEEVEIEPSDNWIIIMVRVEIEGRNPDDPNKPRPVFEVWVMIPIPLPPPKPKPDPDDPAAAKDSA [r9_357_TrROS]” as the sequence, how does the “folding stability dG unfold” value [1] read?
Its value is 11.7 ± 1.8 kJ/mol.

What about the “folding stability dG unfold” value [2] of the same sequence?
The value was 9.59 ± 1.05 kJ/mol.

What about the “folding stability dG unfold” value [3] of the same sequence?
The value was 14.6 ± 0.628 kJ/mol.

What does the source list for “SYSIDTSKIEEAAAALPPNAVAELELTANVPESGFTLKLKVTITVDPAGKVTRITFTDPATGKKIATVDVGS [r1_165_JUSTAS]”?
folding stability dG unfold [1]: 8.78 ± 0.502 kJ/mol; folding stability dG unfold [2]: 10.3 ± 0.289 kJ/mol; folding stability dG unfold [3]: 6.38 ± 0.46 kJ/mol

Which results are given for “SYSTSTVTVPVAADEIDKAKEIAKELAEKLPPNSRVTFNMPAPDGSTFTVEVTVNPDGTITVTVSDSLPAVS [r1_350_JUSTAS]”?
folding stability dG unfold [1]: 5.6 ± 0.364 kJ/mol; folding stability dG unfold [2]: 6.49 ± 0.172 kJ/mol; folding stability dG unfold [3]: 4.12 ± 0.544 kJ/mol

For “SYTLEFEDITLKPVEPGTKISIPGYVKYDGVLYKVTEVTYDPEKGTITITIKVEPEGKPKTLTITIPIPPPS [r1_47_JUSTAS]”, which “folding stability dG unfold” value [1] is on record?
The value was 8.63 ± 0.795 kJ/mol.

What about the “folding stability dG unfold” value [2] of the same sequence?
Its value is 9.36 ± 0.46 kJ/mol.

What about the “folding stability dG unfold” value [3] of the same sequence?
The value was 7.74 ± 0.36 kJ/mol.

With “TTVTTPKNGLININLTDKKGNKYTFTAPVKDPVETLEKLKKLIKDLFPEYKDVKVKVVSVDGINIKVVVDIS [r1_389_TrMRF]” as the sequence, how does the “folding stability dG unfold” value [1] read?
The value was 13.6 ± 0.418 kJ/mol.

What about the “folding stability dG unfold” value [2] of the same sequence?
The value was 11.1 ± 0.46 kJ/mol.

What about the “folding stability dG unfold” value [3] of the same sequence?
The value was 14.9 ± 0.255 kJ/mol.

Which “folding stability dG unfold” value [1] does the source give for “TWTFTIMIPIKPEIREALDSGKPLPIEELVDWIKDEIARMFGFKDVTVKGIEIHPDPNGEIMVMVTIEFKPS [r1_290_TrROS]” here?
Its value is 19.3 ± 0.502 kJ/mol.

What about the “folding stability dG unfold” value [2] of the same sequence?
The value was 18 ± 1.17 kJ/mol.

And the “folding stability dG unfold” value [3]?
The value was 19.4 ± 0.502 kJ/mol.

Which results are given for “WKIVEITDIEPDPDGWLEIKITIEPPEPGDPIKIMIFHPNQFHEFEIDPESPEIEIRIPPGFDNLHIFIYVS [r1_428_TrROS]”?
folding stability dG unfold [1]: 16.3 ± 2.38 kJ/mol; folding stability dG unfold [2]: 11.8 ± 1 kJ/mol; folding stability dG unfold [3]: 18.5 ± 0.837 kJ/mol
